# Test results: patent US20090068207A1, “Compositions Containing Beta 2-Glycoprotein I-Derived Peptides for the Prevention and/or Treatment of Vascular Disease” (Vascular Biogenics Ltd., priority 2005, published 2009)
# B1: Human β2 GPI: human beta2-glycoprotein I (SEQ ID NO: 10) purified from serum (protein)
# chain: MISPVLILFSSFLCHVAIAGRTCPKPDDLPFSTVVPLKTFYEPGEEITYSCKPGYVSRGGMRKFICPLTGLWPINTLKCTPRVCPFAGILENGAVRYTTFEYPNTISFSCNTGFYLNGADSAKCTEEGKWSPELPVCAPIICPPPSIPTFATLRVYKPSAGNNSLYRDTAVFECLPQHAMFGNDTITCTTHGNWTKLPECREVKCPFPSRPDNGFVNYPAKPTLYYKDKATFGCHDGYSLDGPEEIECTKLGNWSAMPSCKASCKLPVKKATVVYQGERVKIQEKFKNGMLHGDKVSFFCKNKEKKCSYTEDAQCIDGTIEVPKCFKEHSSLAFWKTDASDVKPC
# Legend:
# [1] = test system: inguinal lymph node cells; experiment: Lymph node cell proliferation (stimulation index) to sensitizing antigen β2GPI after mucosal administration; type: in vivo, mice; details: then immunization with human β2GPI, LDL-RD mice
# Experimental: Immunization: Subcutaneous immunization with human β2GPI: Human β2GPI was prepared from human plasma pool as described above. For immunization, human β2GPI was dissolved in PBS and mixed with equal volumes of Freund's incomplete adjuvant. Immunizations were performed by single subcutaneous injection of 10 μg antigen/mouse in 0.1 ml volume. Three days following the last mucosal administration of plaque associated molecules the mice received one immunization, and were sacrificed 10 days post immunization.
# Proliferation assays: Mice were exposed to the tested antigen as described for assessment of atherosclerosis, and then immunized (one to three days following the last exposure) subcutaneously with 10 μg β2GPI in 0.1 ml PBS, prepared from purified human β2GPI as described above.
# Proliferation was assayed ten days after immunization with the β2GPI as follows: Draining inguinal lymph nodes were prepared by mashing the tissues on 100 mesh screens. Red blood cells were lysed with cold sterile double distilled water (6 ml) for 30 seconds and 2 ml of NaCl 3.5% was added. Incomplete medium was added (10 ml), cells were centrifuged for 7 min at 1,700 rpm, resuspended in RPMI medium and counted in a haemocytometer at 1:20 dilution (10 μl cells+190 μl Trypan Blue). Proliferation was measured by the incorporation of [^3H] Thymidine into DNA in triplicate samples of 100 μl of the packed cells (1×10^6 cells/ml) in a 96 well microtiter plate. […] Thymidine (0.5 μCi/well) was added. After an additional 12-24 hours of incubation the cells were harvested and transferred to glass fiber filters using a cell harvester (Brandel) and counted using β-counter (Lumitron). Proliferation was measured by the incorporation of [^3H] thymidine into DNA during the final 12 h of incubation. The results are expressed as the stimulation index (S.I.): the ratio of the mean radioactivity (cpm) of the antigen to the mean background (cpm) obtained in the absence of the antigen. Standard deviation was always <10% of the mean cpm.
# Tolerance induced by mucosal exposure to plaque-associated molecules may be mediated by suppression of specific immune responses to antigenic portions (epitopes) of these plaque associated molecules. Lymphocyte proliferation in response to mucosal (nasal and oral) exposure to human β2GPI was measured in […]. 9 male, 5 week old LDL-RD mice were divided into 3 groups. In group A (n=3) oral tolerance was induced with 100 μg/mouse β2GPI suspended in 0.1 ml PBS, administered by gavage, as described above, every other day for 5 days. In group B (n=3) nasal tolerance was induced with 10 μg/mouse β2GPI suspended in 10 μl PBS, administered intranasally as described above, every other day for 5 days. The mice in group C (n=3) received oral administration of 200 μl PBS every other day for 5 days. Immune reactivity was stimulated in all mice by immunization with human β2GPI as described above in the Materials and Methods section, one day after the last feeding. Ten days after the immunization lymph nodes were collected for assay of proliferation (as expressed in the Stimulation Index SI). All mice were fed normal chow-diet containing 4.5% fat by weight (0.02% cholesterol) and water ad libitum.
# ApoE-KO mice = experiment: Aortic sinus lesion area after nasal administration in ApoE-KO mice; type: in vivo
# Experimental: Nasal Tolerance: Nasal tolerance was induced by intranasal administration of oxidized LDL, β2GPI, β2GPI-derived peptides or HSP65, in a total volume of 10 μl PBS. Intranasal administration was performed on mildly sedated mice (12-16 weeks old), each mouse receiving […] of antigen per dose, in the indicated concentrations, every other day. Atherogenesis was induced by 5 weeks of a Western diet initiated on the day following the last intranasal administration, or assessed (in Apo E KO mice) after 8 weeks on a chow diet. Controls received equal amounts of BSA and/or PBS, as indicated, in an identical regimen. Plasma was obtained for assessment of cholesterol and triglyceride levels from all mice, and the mice were sacrificed for evaluation of atherosclerosis, as described hereinbelow, after 5 weeks Western diet, or (in Apo E KO mice) after 8 weeks on a chow diet.
# Assessment of Atherosclerosis: Quantification of atherosclerotic fatty streak lesions was done by calculating the lesion size in the aortic sinus as previously described (16) and by calculating the lesion size in the aorta. Briefly, after perfusion with saline Tris EDTA, the heart and the aorta were removed from the animals and the peripheral fat cleaned carefully. […] Lesion areas per section were scored on a grid (17) by an observer counting unidentified, numbered specimens. […]
# LDL-RD mice = experiment: Aortic sinus lesion area after intraperitoneal immunization with incomplete Freund's adjuvant; type: in vivo; details: End, intraperitoneal with incomplete Freund's adjuvant, head 100 μg, mean ± S.E
# Experimental: Intraperitoneal immunization with human β2GPI-derived peptides: human β2GPI-derived peptides were dissolved in PBS and mixed with equal volumes of Freund's incomplete adjuvant. […] One week following the last immunization, the diet was switched from chow to atherogenic “Western” diet for five weeks, and then the mice were sacrificed.
# Assessment of Atherosclerosis: Quantification of atherosclerotic fatty streak lesions was done by calculating the lesion size in the aortic sinus as previously described (16) and by calculating the lesion size in the aorta. Briefly, after perfusion with saline Tris EDTA, the heart and the aorta were removed from the animals and the peripheral fat cleaned carefully. The upper section of the heart was embedded in OCT medium (10.24% w/w polyvinyl alcohol; 4.26% w/w polyethylene glycol; 85.50% w/w nonreactive ingredients) and frozen. Every other section (10 μm thick) throughout the aortic sinus (400 μm) was taken for analysis. The distal portion of the aortic sinus was recognized by the three valve cusps that are the junctions of the aorta to the heart. […] Lesion areas per section were scored on a grid (17) by an observer counting unidentified, numbered specimens. The aorta was dissected from the heart and surrounding adventitious tissue was removed. Fixation of the aorta and Sudan staining of the vessels were performed as previously described (21). […]
molecule,measurement,setting,value
B1,S.I (Stimulation Index),[1]; nasal 10 μg/mouse every other day for 5 days,2.1 ± 0.5
same,S.I (Stimulation Index),[1]; oral 100 μg/mouse every other day for 5 days,4.4 ± 0.5
same,Aortic sinus lesion (μm^2),"ApoE-KO mice; End, nasal 10 μg/mouse, mean ± S.E",117449 ± 7524 μm^2
same,reduction of progression of atherosclerotic lesions compared to PBS controls,"ApoE-KO mice; nasal 10 μg, 3 doses, then 8 weeks of chow diet",19%
same,Aortic sinus lesion (μm^2),LDL-RD mice,36782 ± 5962 μm^2
